Measured values as given in patent US20140087995A1 (published 2014).
Numbered stars: 1 amine (or outer) side, 2 acyl side, 3 side chain; on linkers, the order of the positions; unused ones are H or OH. Bridge positions count the residues as written; N and C are the ends. Side chains are listed from the residue outwards. Ends that are not written are not given here. * marks the point of attachment. C20 diacid = O=C(O)CCCCCCCCCCCCCCCCCCC(=O)*; γGlu = O=C(O)[C@H](CCC(=O)[*:2])N[*:1]

T1: human calcitonin receptor (human, UniProt P30988 25-474)
T1 construct: whole, on cells; Membranes of a stably transfected BHK cell line (Assay VII); also called hCTR; hCT
T1 sequence (looked up): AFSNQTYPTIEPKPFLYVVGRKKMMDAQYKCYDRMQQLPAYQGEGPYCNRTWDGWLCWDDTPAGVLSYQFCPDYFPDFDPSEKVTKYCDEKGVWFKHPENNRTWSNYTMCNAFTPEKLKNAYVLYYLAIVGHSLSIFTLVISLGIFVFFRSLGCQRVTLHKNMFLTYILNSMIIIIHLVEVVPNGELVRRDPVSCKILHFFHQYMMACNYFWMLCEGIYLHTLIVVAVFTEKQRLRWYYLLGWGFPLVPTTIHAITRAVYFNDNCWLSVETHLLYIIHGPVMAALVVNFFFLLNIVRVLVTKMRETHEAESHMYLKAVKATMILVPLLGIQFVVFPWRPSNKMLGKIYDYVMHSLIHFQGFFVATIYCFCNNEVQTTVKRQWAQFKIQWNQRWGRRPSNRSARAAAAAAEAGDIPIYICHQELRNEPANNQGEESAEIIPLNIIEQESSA

T2: rat calcitonin receptor (rat, UniProt P32214 25-516)
T2 construct: whole, on cells; Membranes of transiently transfected BHK tk'ts 13 cells (Assay VIII); also called rCTR
T2 sequence (looked up): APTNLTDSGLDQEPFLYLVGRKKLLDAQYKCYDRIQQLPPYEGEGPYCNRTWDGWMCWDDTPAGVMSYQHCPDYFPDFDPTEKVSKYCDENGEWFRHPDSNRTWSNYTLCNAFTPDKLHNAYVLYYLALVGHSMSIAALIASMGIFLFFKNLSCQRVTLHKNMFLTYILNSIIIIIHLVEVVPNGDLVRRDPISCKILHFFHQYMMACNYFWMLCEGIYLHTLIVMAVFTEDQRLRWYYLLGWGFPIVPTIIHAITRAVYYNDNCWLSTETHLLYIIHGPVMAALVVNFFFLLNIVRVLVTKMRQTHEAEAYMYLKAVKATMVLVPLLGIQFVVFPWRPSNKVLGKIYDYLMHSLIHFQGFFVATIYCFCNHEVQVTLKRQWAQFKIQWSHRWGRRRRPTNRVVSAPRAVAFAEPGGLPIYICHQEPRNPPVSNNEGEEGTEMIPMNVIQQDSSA

T3: rat amylin receptor (rat calcitonin receptor + rat RAMP 3) (rat, UniProt P32214 25-516; Q9JJ73 23-147)
T3 construct: whole, on cells; Membranes of transiently transfected BHK tk'ts 13 cells (Assay VI); also called rAmylin-R; rat amylin 3(a) receptor
T3 sequence (looked up) 1: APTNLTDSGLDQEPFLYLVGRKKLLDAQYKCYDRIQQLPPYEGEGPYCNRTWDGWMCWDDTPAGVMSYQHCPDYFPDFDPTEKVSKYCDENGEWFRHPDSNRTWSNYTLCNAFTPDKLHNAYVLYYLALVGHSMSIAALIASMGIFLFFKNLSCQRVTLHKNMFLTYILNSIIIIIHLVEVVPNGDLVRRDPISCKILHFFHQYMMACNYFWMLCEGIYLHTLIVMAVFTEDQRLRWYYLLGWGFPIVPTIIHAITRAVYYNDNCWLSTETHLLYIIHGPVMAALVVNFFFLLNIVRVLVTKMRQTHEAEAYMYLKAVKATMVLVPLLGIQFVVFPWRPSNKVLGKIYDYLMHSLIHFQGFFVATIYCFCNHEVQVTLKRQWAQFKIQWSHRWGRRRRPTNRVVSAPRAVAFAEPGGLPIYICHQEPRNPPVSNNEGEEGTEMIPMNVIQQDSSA
T3 sequence (looked up) 2: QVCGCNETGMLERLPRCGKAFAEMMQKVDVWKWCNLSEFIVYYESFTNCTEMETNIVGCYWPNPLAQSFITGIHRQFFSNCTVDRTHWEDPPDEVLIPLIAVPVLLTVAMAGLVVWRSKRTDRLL


How the values were obtained:
[1] = target: T1, human calcitonin receptor; assay: ratio IC50 human calcitonin receptor / IC50 human amylin receptor (reference)
In short: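 Competition binding by SPA with cell membranes (35 ng/μL) and SPA beads in 50 mM Hepes pH 7.4 with 1 mM CaCl2, 5 mM MgCl2, 0.1% OA and 0.02% Tween20. Incubated 120 min at 25 °C with shaking, then counted.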

[2] = target: T2, rat calcitonin receptor; assay: SPA competition with 125I-calcitonin, membranes of BHK cells with rat calcitonin receptor (Assay VIII)
[3] = target: T3, rat amylin receptor (rat calcitonin …); assay: SPA competition with 125I-rat amylin, membranes of BHK cells with rat calcitonin receptor + rat RAMP3 (Assay VI)
[4] = target: T2, rat calcitonin receptor; assay: ratio IC50 rat calcitonin receptor / IC50 rat amylin receptor (reference)

| Binder | Ratio hCT/hAmylin binding [1] | IC50 [2] | IC50 [3] | Ratio rCT/rAmylin binding [4] |
| --- | --- | --- | --- | --- |
| K([γGlu-C20 diacid])CNTATCATQRLAHFLRHSSPNFGAIPSSTNVGRNTY-NH2 (disulfide 2-7; N-terminus assumed; SMILES CC[C@H](C)[C@H](NC(=O)[C@H](C)NC(=O)CNC(=O)[C@H](Cc1ccccc1)NC(=O)[C@H](CC(N)=O)NC(=O)[C@@H]1CCCN1C(=O)[C@H](CO)NC(=O)[C@H](CO)NC(=O)[C@H](Cc1c[nH]cn1)NC(=O)[C@H](CCCNC(=N)N)NC(=O)[C@H](CC(C)C)NC(=O)[C@H](Cc1ccccc1)NC(=O)[C@H](Cc1c[nH]cn1)NC(=O)[C@H](C)NC(=O)[C@H](CC(C)C)NC(=O)[C@H](CCCNC(=N)N)NC(=O)[C@H](CCC(N)=O)NC(=O)[C@@H](NC(=O)[C@H](C)NC(=O)[C@@H]1CSSC[C@H](NC(=O)[C@@H](N)CCCCNC(=O)CC[C@H](NC(=O)CCCCCCCCCCCCCCCCCCC(=O)O)C(=O)O)C(=O)N[C@@H](CC(N)=O)C(=O)N[C@@H]([C@@H](C)O)C(=O)N[C@@H](C)C(=O)N[C@@H]([C@@H](C)O)C(=O)N1)[C@@H](C)O)C(=O)N1CCC[C@H]1C(=O)N[C@@H](CO)C(=O)N[C@@H](CO)C(=O)N[C@H](C(=O)N[C@@H](CC(N)=O)C(=O)N[C@H](C(=O)NCC(=O)N[C@@H](CCCNC(=N)N)C(=O)N[C@@H](CC(N)=O)C(=O)N[C@H](C(=O)N[C@@H](Cc1ccc(O)cc1)C(N)=O)[C@@H](C)O)C(C)C)[C@@H](C)O, also called compound 85) | 91.8 | 146 nM | 3.14 nM | 46.5 |
| K([γGlu-C20 diacid])CNTATCATQRLAHFLRHSSPNFGAIPSSTNVGPNTP-NH2 (disulfide 2-7; N-terminus assumed; SMILES CC[C@H](C)[C@H](NC(=O)[C@H](C)NC(=O)CNC(=O)[C@H](Cc1ccccc1)NC(=O)[C@H](CC(N)=O)NC(=O)[C@@H]1CCCN1C(=O)[C@H](CO)NC(=O)[C@H](CO)NC(=O)[C@H](Cc1c[nH]cn1)NC(=O)[C@H](CCCNC(=N)N)NC(=O)[C@H](CC(C)C)NC(=O)[C@H](Cc1ccccc1)NC(=O)[C@H](Cc1c[nH]cn1)NC(=O)[C@H](C)NC(=O)[C@H](CC(C)C)NC(=O)[C@H](CCCNC(=N)N)NC(=O)[C@H](CCC(N)=O)NC(=O)[C@@H](NC(=O)[C@H](C)NC(=O)[C@@H]1CSSC[C@H](NC(=O)[C@@H](N)CCCCNC(=O)CC[C@H](NC(=O)CCCCCCCCCCCCCCCCCCC(=O)O)C(=O)O)C(=O)N[C@@H](CC(N)=O)C(=O)N[C@@H]([C@@H](C)O)C(=O)N[C@@H](C)C(=O)N[C@@H]([C@@H](C)O)C(=O)N1)[C@@H](C)O)C(=O)N1CCC[C@H]1C(=O)N[C@@H](CO)C(=O)N[C@@H](CO)C(=O)N[C@H](C(=O)N[C@@H](CC(N)=O)C(=O)N[C@H](C(=O)NCC(=O)N1CCC[C@H]1C(=O)N[C@@H](CC(N)=O)C(=O)N[C@H](C(=O)N1CCC[C@H]1C(N)=O)[C@@H](C)O)C(C)C)[C@@H](C)O) | 1.2 | 0.371 nM | 0.125 nM | 3 |
| K([γGlu-C20 diacid])CNTATCATQRLAHFLRHSSPNFGAIPSSTPVGPNTY-NH2 (disulfide 2-7; N-terminus assumed; SMILES CC[C@H](C)[C@H](NC(=O)[C@H](C)NC(=O)CNC(=O)[C@H](Cc1ccccc1)NC(=O)[C@H](CC(N)=O)NC(=O)[C@@H]1CCCN1C(=O)[C@H](CO)NC(=O)[C@H](CO)NC(=O)[C@H](Cc1c[nH]cn1)NC(=O)[C@H](CCCNC(=N)N)NC(=O)[C@H](CC(C)C)NC(=O)[C@H](Cc1ccccc1)NC(=O)[C@H](Cc1c[nH]cn1)NC(=O)[C@H](C)NC(=O)[C@H](CC(C)C)NC(=O)[C@H](CCCNC(=N)N)NC(=O)[C@H](CCC(N)=O)NC(=O)[C@@H](NC(=O)[C@H](C)NC(=O)[C@@H]1CSSC[C@H](NC(=O)[C@@H](N)CCCCNC(=O)CC[C@H](NC(=O)CCCCCCCCCCCCCCCCCCC(=O)O)C(=O)O)C(=O)N[C@@H](CC(N)=O)C(=O)N[C@@H]([C@@H](C)O)C(=O)N[C@@H](C)C(=O)N[C@@H]([C@@H](C)O)C(=O)N1)[C@@H](C)O)C(=O)N1CCC[C@H]1C(=O)N[C@@H](CO)C(=O)N[C@@H](CO)C(=O)N[C@H](C(=O)N1CCC[C@H]1C(=O)N[C@H](C(=O)NCC(=O)N1CCC[C@H]1C(=O)N[C@@H](CC(N)=O)C(=O)N[C@H](C(=O)N[C@@H](Cc1ccc(O)cc1)C(N)=O)[C@@H](C)O)C(C)C)[C@@H](C)O) | 24.8 | 9.05 nM | 0.125 nM | 72.4 |

Now from value to binder:

| Ratio hCT/hAmylin binding [1] | IC50 [2] | IC50 [3] | Ratio rCT/rAmylin binding [4] | Binder |
| --- | --- | --- | --- | --- |
| 159 | 352 nM | 2.8 nM | 126 | K([γGlu-γGlu-C20 diacid])CNTATCATQRLANFLRHSSPNFGAIPSSTNVGHNTY-NH2 (disulfide 2-7; N-terminus assumed; SMILES CC[C@H](C)[C@H](NC(=O)[C@H](C)NC(=O)CNC(=O)[C@H](Cc1ccccc1)NC(=O)[C@H](CC(N)=O)NC(=O)[C@@H]1CCCN1C(=O)[C@H](CO)NC(=O)[C@H](CO)NC(=O)[C@H](Cc1c[nH]cn1)NC(=O)[C@H](CCCNC(=N)N)NC(=O)[C@H](CC(C)C)NC(=O)[C@H](Cc1ccccc1)NC(=O)[C@H](CC(N)=O)NC(=O)[C@H](C)NC(=O)[C@H](CC(C)C)NC(=O)[C@H](CCCNC(=N)N)NC(=O)[C@H](CCC(N)=O)NC(=O)[C@@H](NC(=O)[C@H](C)NC(=O)[C@@H]1CSSC[C@H](NC(=O)[C@@H](N)CCCCNC(=O)CC[C@H](NC(=O)CC[C@H](NC(=O)CCCCCCCCCCCCCCCCCCC(=O)O)C(=O)O)C(=O)O)C(=O)N[C@@H](CC(N)=O)C(=O)N[C@@H]([C@@H](C)O)C(=O)N[C@@H](C)C(=O)N[C@@H]([C@@H](C)O)C(=O)N1)[C@@H](C)O)C(=O)N1CCC[C@H]1C(=O)N[C@@H](CO)C(=O)N[C@@H](CO)C(=O)N[C@H](C(=O)N[C@@H](CC(N)=O)C(=O)N[C@H](C(=O)NCC(=O)N[C@@H](Cc1c[nH]cn1)C(=O)N[C@@H](CC(N)=O)C(=O)N[C@H](C(=O)N[C@@H](Cc1ccc(O)cc1)C(N)=O)[C@@H](C)O)C(C)C)[C@@H](C)O, also called compound 86) |
| 48.6 | 52.4 nM | 0.381 nM | 137 | K([γGlu-γGlu-C20 diacid])CNTATCATQRLANFLRHSSPNFGAIPSSTPVGPRTY-NH2 (disulfide 2-7; N-terminus assumed; SMILES CC[C@H](C)[C@H](NC(=O)[C@H](C)NC(=O)CNC(=O)[C@H](Cc1ccccc1)NC(=O)[C@H](CC(N)=O)NC(=O)[C@@H]1CCCN1C(=O)[C@H](CO)NC(=O)[C@H](CO)NC(=O)[C@H](Cc1c[nH]cn1)NC(=O)[C@H](CCCNC(=N)N)NC(=O)[C@H](CC(C)C)NC(=O)[C@H](Cc1ccccc1)NC(=O)[C@H](CC(N)=O)NC(=O)[C@H](C)NC(=O)[C@H](CC(C)C)NC(=O)[C@H](CCCNC(=N)N)NC(=O)[C@H](CCC(N)=O)NC(=O)[C@@H](NC(=O)[C@H](C)NC(=O)[C@@H]1CSSC[C@H](NC(=O)[C@@H](N)CCCCNC(=O)CC[C@H](NC(=O)CC[C@H](NC(=O)CCCCCCCCCCCCCCCCCCC(=O)O)C(=O)O)C(=O)O)C(=O)N[C@@H](CC(N)=O)C(=O)N[C@@H]([C@@H](C)O)C(=O)N[C@@H](C)C(=O)N[C@@H]([C@@H](C)O)C(=O)N1)[C@@H](C)O)C(=O)N1CCC[C@H]1C(=O)N[C@@H](CO)C(=O)N[C@@H](CO)C(=O)N[C@H](C(=O)N1CCC[C@H]1C(=O)N[C@H](C(=O)NCC(=O)N1CCC[C@H]1C(=O)N[C@@H](CCCNC(=N)N)C(=O)N[C@H](C(=O)N[C@@H](Cc1ccc(O)cc1)C(N)=O)[C@@H](C)O)C(C)C)[C@@H](C)O) |
